Measured values from patent US20200299408A1 (Genentech, published 2020).

Biological target: T1, G9A
T1 construct: Residue number counts from the N-terminus of CD3ε; also called CD3εγ G9A
T1 single chain CD3ε-26mer linker-CD3γ: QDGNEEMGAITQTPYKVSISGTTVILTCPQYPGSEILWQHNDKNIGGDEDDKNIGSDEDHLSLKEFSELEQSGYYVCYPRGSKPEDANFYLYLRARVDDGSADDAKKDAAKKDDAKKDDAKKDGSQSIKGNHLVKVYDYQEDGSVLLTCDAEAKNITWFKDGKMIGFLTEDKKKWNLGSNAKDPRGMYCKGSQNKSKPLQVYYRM
Assay: SPR (Biacore 4000): CD3εγ variant captured from the periplasmic fraction on UCHT1v9; analyte a bispecific antibody with one 38E4v1 arm and one irrelevant arm, 0.39-100 nM
Experimental: The secreted CD3εγ variants were captured from the crude periplasmic fraction using anti-CD3 antibody UCHT1v9. UCHT1v9 was immobilized on a CM5 serios S chip through amine coupling using the anti-human IgG (Fc) antibody capture kit (BR-1008-39) from GE Healthcare. SPR measurements were performed on the Biacore 4000 instrument, utilizing kinetic evaluation software. In order to measure monovalent binding affinities, anti-CD3 bispecific antibodies were used in which one arm was the anti-CD3 to be tested and the arm recognized an irrelevant antigen. The bispecific anti-CD3 antibodies were passed over the captured supernatant in a concentration series of two-fold dilutions from 0.39 to 100 nM. The resulting kinetics (FIG. 13D) were measured and calculated using Biacore 4000 BIAevaluation software (product code 28-9664-57).

B1: hu38E4.v1 Fab (Fab, V domains shown)
VH: EVQLVQSGAEVKKPGASVKVSCKASGFTFTSYYIHWVRQAPGQGLEWIGWIYPENDNTKYNEKFKDRVTITADTSTSTAYLELSSLRSEDTAVYYCARDGYSRYYFDYWGQGTLVTVSS
VL: DIVMTQSPDSLAVSLGERATINCKSSQSLLNSRTRKNYLAWYQQKPGQSPKLLIYWTSTRKSGVPDRFSGSGSGTDFTLTISSLQAEDVAVYYCKQSFILRTFGQGTKVEIK
notes: Humanized anti-CD3 Fab; Point mutants of it were expressed as Fabs in HEK293 cells
B1 showed a Kd of 6 nM.
